According to patent publication US20160369011A1:

Target: T1, human TEM1 (endosialin/CD248) (human) (UniProt Q9HCU0)
T1 sequence (chain, biotinylated in the SPR assay of Table 6 (sites not stated)): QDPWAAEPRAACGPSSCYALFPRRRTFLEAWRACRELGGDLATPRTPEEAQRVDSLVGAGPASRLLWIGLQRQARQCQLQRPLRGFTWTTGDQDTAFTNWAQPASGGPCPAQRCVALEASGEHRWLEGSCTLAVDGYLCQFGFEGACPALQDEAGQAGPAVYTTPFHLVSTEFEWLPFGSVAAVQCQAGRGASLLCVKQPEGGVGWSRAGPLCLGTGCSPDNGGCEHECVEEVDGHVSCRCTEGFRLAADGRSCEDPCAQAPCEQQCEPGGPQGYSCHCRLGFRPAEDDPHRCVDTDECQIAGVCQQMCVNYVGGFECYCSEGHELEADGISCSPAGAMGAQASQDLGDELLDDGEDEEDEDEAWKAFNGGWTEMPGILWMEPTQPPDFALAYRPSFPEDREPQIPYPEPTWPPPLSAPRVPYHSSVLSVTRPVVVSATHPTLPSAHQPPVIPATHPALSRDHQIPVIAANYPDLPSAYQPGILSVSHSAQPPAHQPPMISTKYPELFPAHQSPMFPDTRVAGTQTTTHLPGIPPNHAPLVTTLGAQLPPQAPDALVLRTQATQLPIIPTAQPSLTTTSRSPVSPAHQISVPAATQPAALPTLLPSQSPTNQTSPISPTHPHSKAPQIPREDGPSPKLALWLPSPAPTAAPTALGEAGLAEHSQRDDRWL
Assay: SPR (BIAcore), biotin-hTEM1 captured on CAP chip, antibody 0-50 nM as analyte

B1: 1-55-2 (rabbit anti-hTEM1 mAb) (antibody, V domains shown)
VH: QSVEESGGDLVKPEGSLTLTCTASGFSFSSSYWGCWVRQAPGKGPEWIACIYGGSSGTTYYPNWAKGRFSISKTSSTTVTLQMASLTAADTATYFCARVTNGGDWDFKLWGPGTLVTISS
VL: ELVMTQTPASVEVAVGGTVTIKCQASQSINTYLAWYQQKPGQPPKLLIYRASTLASGVPSRFKGSGSGTEFTLTISDLECADAATYYCQQSVRVIDVDNTFGGGTEVVVK
Question: Which results are given for B1?
Answer: Kd: 0.015 nM; koff: 5.8e-05 s⁻¹; kon: 3.7e+06 M⁻¹ s⁻¹

B2: xi1-55-2 (rabbit/human chimerized 1-55-2 mAb) (antibody, human IgG1, kappa, V domains shown)
VH: B1 VH
VL: ELVMTQTPASVEVAVGGTVTIKCQASQSINTYLAWYQQKPGQPPKLLIYRASTLASGVPSRFKGSGSGTEFTLTISDLECADAATYYCQQSVRVIDVDNTFGGGTEVVVKR
Question: With B2 as the binder, how does the Kd read?
Answer: Its Kd is 0.046 nM.

Question: And the koff?
Answer: The koff was 7.1e-05 s⁻¹.

Question: And the kon?
Answer: The kon was 1.5e+06 M⁻¹ s⁻¹.
